test: yeast display, Sf9 membrane polyspecificity reagent, FACS + sequencing; frameworks hold sequencing errors
Summary of the method: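 Using colony PCR, genes from sorted yeast display clones were amplified, then sequenced on MiSeq at 2 × 250 and filtered by CDR length. The clones had been stained with 10% biotinylated, detergent-solubilized Sf9 membrane reagent for 1 hour at 4 °C and sorted by FACS into low and high (top ~1%) gates on anti-HA and streptavidin fluorescence. Polyreactivity labels come from the gate of origin.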

Sequence | polyreactivity (PSR sort gate)
QVQLVESGGGLVQAVGSLRLSCAASGFILTRYAMGWYRQAPGKERELVAGIRLRGGSTYYADSVKGRFTISRDNAKNTVYLQMNSLKPEDTAVYYCAARYYYQYDYWGQGTQVTVSS | high polyreactivity
QVQLVESGGGLVQAVGSLRLSCAASGITFKWYAMGSYRHAPGKERELVAAISWSTGSTYYADSVKGRFTISRDNAKNTVYLQMNSLKPEDTAVYYCAARVKRPQTGYDRRYGYWGQGTQVTVSS | high polyreactivity
QVQLVESGGGLVQAVGSLRLSCAASGITFNLYAMGWYRQAPGKEREFVAGITASGSSTYDADSVKGRFTISRDNAKNTVYLQMNSLKPEDTAVYYCAARWHIYYFSYVTSYAYGYWGQGTQVTVSS | high polyreactivity
QVQLVESGGGLVQAVGSLRLSCAASGLIFDANAMGWYRQAPGKERELVAAISNGDSTYYADSVKGRLTISRDNAKNTVYLQMNSLKPEDTAVYYCNARIIYRKWLFRSGTFNYWGQGTQVTVSS | low polyreactivity
QVQLVESGGGLVQAVGSLRLSCAASGSIFDVNAMGWYRQAPGKERELVAAISQRGTRTYYADSVKGRFTISRDNAKNTVYLQMNSLKPEDTAVYYCNRGGWRQYDSWGQGTQVTVSS | high polyreactivity
QVQLVESGGGLVQAVGSLRLSCAASGSISVYYAMGWYRQAPGKEMELVAAISRSGGRTYYADSVKGRFTISRDNAKNTVYLQMNSLKPEDTAVYYCAAGYSSLRRFGVYYWGQGTQVTVSS | high polyreactivity
QVQLVESGGGLVQAVGSLRLSCAASGSTFDHYAMGWYRQAPGKERELVAAISYSGSTTDYADSVKGRFTISRDNAMNTVYLQMISLKPEDTAVYYCAASGDVIQSPMDYWGQGTQVTVSS | low polyreactivity
QVQLVESGGGLVQAVGSLRLSCAASGSTFFWYAMGWYRQAPGKERELVAAISKTGGSTYYADSVKGRFTISRDNAKNTVYLQMNSLKPEDTAVYYCAKPLSSFSRTSSVWPWYDYWGQGTQVTVSS | low polyreactivity
QVQLVESGGGLVQAVGSLRLSCAASGSTLSFNAMGWYRQAPGKERELVAGITYSGGSTYYADSVKGRFTISRDNAKNTVYLQMNSLKPEDTAVYYCNKASGVYYGHLDYWGQGTQVTVSS | low polyreactivity
QVQLVESGGGLVQAVGSLRLSCAASGYFFSSNAMGWYSQSPGKERELVAAITASGGGTYYADSVKGRFTISRDNAQNTVYIQMKSLKPEDTAVYYCAADFNDHYYWYGQDFDYWGQGTQVTVSS | low polyreactivity
QVQLVESGGGLVQAVGSLRLSCAAYGSTFYVNAMGWYRQAPGKEREFVAAITWNSGSTYYADSVKGRFTISRDNAKNTVYLQMNSLKPEDTAVYYCAAVLYVRVYGYDYWGQGTQVTVSS | low polyreactivity
QVQLVESGGGLVQAVGSLRLSCASSGNTFGPNAMGWYRQAPGKERELVAAIRWRGGSTYYADSVKGRFTISRDYAKNTVYLQMNSLKPVDNAVYYCAAGIHSPTYRTGTTYVDYDYWGQGTQVTVSS | high polyreactivity
QVQLVESGGGLVQAVGSLRLSCDASGSTFYPYAIGWYRQAPAKESELVARITRGVGSTYYADSVKGRFTISRDNAKNTVYLQMNSLIPEDTAVYYCNRVEYFTVWGYDYWGQGTQVTVSS | low polyreactivity
QVQLVESGGGLVQAVGSLRLSSAASRSTFGLNAMGWYRQAPGKESELVAAITFSGGSTYYADSVKGRFTISRDNANNTVYLQKNSLKPEDTAVYYCAARFSLEGGYYWGQGTQVTVSS | low polyreactivity
QVQLVESGGGLVQAVRSRRLSSAASGSIFYFYPMGWYRQAPGKDREFVAAISSGGSTYYSDSVKGRFTNSRDNAKYTVYLQMNSLKPEDTAVYYCAAVSLYYRYDFWGQGTQVTVSS | low polyreactivity
QVQLVESGGGLVQDGGSLPLSCAASGHIFIYYTMGWYRQAPGKERELVAGITIGGSTNYADSVKGRFTISRDNAQNTVYLQMNSLKPEDTAVYYCSTTWYLVASWYVAIFDYWGQGTQVTVSS | low polyreactivity
QVQLVESGGGLVQEGASLRLSCAASGFIFLQYAMGWYRQAPGKERELVAAITSGGGTNYADSVKGRFTISRDNAKNTVYLQMNSLKPEDTAVYYCAARTWPWVLGATQDDYWGQGTQVTVSS | low polyreactivity
QVQLVESGGGLVQEGGSLRISCASSGFIFASYAMAWYIQAPGKERELVAAITQSGGITYYADSVKERFTISRDNAKYTVYLQMNSLKPEDTAVFYCNTPLLKRTTRCRERNYWGQGTQVTVSS | low polyreactivity
QVQLVESGGGLVQEGGSLRLICAASGFIFRYYAMGWYRQAPGKERELVAAISRSGGSTSYADSVKGRFTISRDNAKITGDFQMNSLKPEDSAVYYCAKYVAFHYKQYDFNWGQGTQVYVSS | high polyreactivity
QVQLVESGGGLVQEGGSLRLICAASGRTFYPNAMGWYRQAPGKERELVADITYSGASTYYADSVKGRFTISRDYAKNTVYLQMNSLKPEDTAVYYCNADDSCVLVYVPYDYWGQGTQVTVSS | low polyreactivity
QVQLVESGGGLVQEGGSLRLICAASGSIFEVNAMGWYRQAPGKERELAATITYSGGSTYYADSVKGRFTISRDNAKNTVYFQMNSLKPEDTAVYYCATDYVDWELYIYDYWGQGTQVTVSS | low polyreactivity
QVQLVESGGGLVQEGGSLRLICSASGSTFRANAMGWYRQAPGKERELVAAITSSGGSTYYADSVKGRFTISRDNAKNTVYLQMNSLKPEDTAVYYCAKENAPSRLTYGYWGQGTQVTVSS | low polyreactivity

Sequence | polyreactivity (PSR sort gate)
QVQLVESGGGLVQEGGSLRLSCAASASTLYKYAMGWYRQAPGKERELVAAISWSGSSTYYADSVKGRFTISRDNAKNTVYLQMNSLKPEDTAVYYCNARWQEPLKYDYWGQGTQVTVSS | low polyreactivity
QVQLVESGGGLVQEGGSLRLSCAASGFIFGWYAMGWYRQAPGKERELVATISSSGGSTYYADSVKGRFTISRDNAKNTVYLQMNSLKPEDTAVYYCAARPRRYYSAQDMDYWGQGTQVTVSS | high polyreactivity
QVQLVESGGGLVQEGGSLRLSCAASGFIFGWYGMGWYRQPPGKDSELFAAITWSGVRTYYADSVKGRFTISRDNAKNTVYLQMISLKPEDTAVYYCARAGGYVGRGYKDQDGRGDYWGQGTQVTVSS | high polyreactivity
QVQLVESGGGLVQEGGSLRLSCAASGFTFRYYAMGWYRQAPGKERELVAAIRWNGGSTYYADSVKGRFTISRDNAKNTVYLQMNRLKPEDTAVYYCNAAYSYGRYEYVYWGQGTQVTVSS | high polyreactivity
QVQLVESGGGLVQEGGSLRLSCAASGFTFVGYAMGWYRQAPGKERELLASIPWGGDRTYYADTVKGRFTISRDNAKNTDYLQMNSLKPEDTAVYYCNAQYEIWRVTFSPYDRWGYDYWGQGTQVTVSS | low polyreactivity
QVQLVESGGGLVQEGGSLRLSCAASGIIFSIYAMGWYRQAPGKERELVAVISRSSGSTYYADSVKGRFTISRDNAKNTVYLQMNSLIPEDTSVYFCAARKNRAYGYWGQGTEVTVSS | high polyreactivity
QVQLVESGGGLVQEGGSLRLSCAASGITFGRYAMGWYRQAPGKERELVAAISWSGGSTYYADSVKGRFTISRDNAKITVYLQMNSLKPEDTAVYSCNARGFPGKFGYWGQGTQVTVSS | high polyreactivity
QVQLVESGGGLVQEGGSLRLSCAASGITFKTYAMGWYRQAPGKESELVATINRGSRTNYADPVKGRFTISRDNAKNTVYLQMNSLKPEDTAVYYCAAHYTTFIPSPDGDYLGQGTQVTVSS | low polyreactivity
QVQLVESGGGLVQEGGSLRLSCAASGLIFGENAMGWYRQAPGKERELVAAISRRAGITYYADSVKGRFTISRDNAKNTVYLQMNSLKPVDTAVYYCAARKGAISSPYDYWGQGTQVTVSS | high polyreactivity
QVQLVESGGGLVQEGGSLRLSCAASGLTFAGYAMGWYRQATGKERELVAAITTGGSTYYADSVNGRFTISRDNAKNTVYLQMNSLKPEDTAVYYCAARRVRKALVGYGYWGQGTQVTVSS | high polyreactivity
QVQLVESGGGLVQEGGSLRLSCAASGLTFFPYAMGWYRQAPGKERELVAAITTSDGTTYYADSVKGRFTISRDNAKNTVYLQMNSLKPEDTAVYYCAAVYSPRSVWWYDYWGQGTEVTVSS | low polyreactivity
QVQLVESGGGLVQEGGSLRLSCAASGLTFSPYAMGWYRQAPGKERELVATITIGGSTKYADSVKGRFTISRDNAKNTVYLQMNSLKPEDTAVYYCAVRSGYVTRRYDYWGQGTQVTVSS | low polyreactivity
QVQLVESGGGLVQEGGSLRLSCAASGRIFDVYVMGWYRQAPGKERELVDAISQSGGRTYYADSVKGRFTISRDNAKNTVYLQMNSLKPEDTAVYYCNTVTSLATNFSGFGYWGQGTQVTVSS | high polyreactivity
QVQLVESGGGLVQEGGSLRLSCAASGRIFGTNAMGWYRQAPGKERELVAAISRSGGSTYYADSVKGRFTISRDNAKNTVYLQMNSLKPEDTAVYYCATDGRHTYYYWGQGTQVTVSS | high polyreactivity
QVQLVESGGGLVQEGGSLRLSCAASGRIFKPYVMGWYRQAPGKERELVAAISWSGGASTYYADSVKGRFTISRENAKNTVYLQMNSLKPEDTAVYYCNAAKRNRYDYWGQGTQVTVSS | low polyreactivity
QVQLVESGGGLVQEGGSLRLSCAASGRIFPKYAMGWYRQAPAKERELVAAISQRGGSTYYADSVKGRFTISRDNAKNTVYLQMNSLKPEDTAVYYCAASYYRQSCEYDYWGQGTQVTVSS | low polyreactivity
QVQLVESGGGLVQEGGSLRLSCAASGRISVRYGMGWYRQAPGKERELVATISQSGGSTYYADSVKGRFTISRDNAKNTVYLQMNSLKPEDTAVYYCAAETDYVRHARKYDFWGQGTQVTVAS | low polyreactivity
QVQLVESGGGLVQEGGSLRLSCAASGRNFDVNAMGWYRQAPGKERELDAAISSGGNTKYSDSVKGRFTISRDKSKNTVYLQMNSLKPVDSAVYYCKADGKAGGDYDYWVQGTQVTVSS | low polyreactivity
QVQLVESGGGLVQEGGSLRLSCAASGRNFGRYAMVRYRQAPGKERELVAAISSSGVATYYADSVKGRFTISRDNAKNTVYLQMNSLKPEDTEVYYCNSLYRVFYGFYYWGQGTQVTVSS | high polyreactivity
QVQLVESGGGLVQEGGSLRLSCAASGRTFRINAMGWYRQAPGKERELVAAITSIAGNTYYADSVKGRFTISRDNAKNTVYLQMNSLKPEDTAVYYCAVDSVPWGFRGAYGLTRYYYWGQGTQVTVSS | low polyreactivity
QVQLVESGGGLVQEGGSLRLSCAASGSIFSGYAMGWYRQAPGKERELVAGITWSGGSTYYADSVKGRFTISRDNAKNTVYLQMNSLKPEDTSVYYCAAKYYWYYSYSGIPLFDYWGQGTQVTVSS | low polyreactivity

From the nanobody polyreactivity screen of Harvey et al. (2022)
